Experimental data published in article PMC7554302, “The Reversible Non-covalent Aggregation Into Fibers of PGLa and Magainin 2 Preserves Their Antimicrobial Activity and Synergism” (Frontiers in Cellular and Infection Microbiology, 2020).
Where no end group is shown, it is not given here.

Target: the molecule itself
Assay: transmission electron microscopy + FTIR; negative-stain TEM of the samples fibrillated in Mueller-Hinton medium; FTIR of fibril pellets prepared in 50 mM phosphate buffer pH 7.4

B1: magainin 2a (peptide)
peptide: GIGKFLHSAKKFGKAFVGEIMNS-NH2
notes: magainin 2, antimicrobial peptide of Xenopus laevis skin secretions, cut from the magainins precursor; Forms fibrils (many copies); source: synthetic peptide (solid-phase synthesis, Fmoc chemistry; reverse phase HPLC purified)
**Q.** Does B1 bind?
**A.** Result: binds
